The assay concerns the target PilE2, major pilin of Streptococcus sanguinis 2908 type IV pili (mature, untagged) (Streptococcus sanguinis 2908). Description: top-down mass spectrometry of purified filaments; purified Tfp from S. sanguinis WT, intact protein mass spectra on an LTQ Orbitrap; ratio of the two major proteoforms.

This note sets out measurements from article PMC6497953.

Consider “PilE1, major pilin of Streptococcus sanguinis 2908 type IV pili (mature, untagged) (natural protein)”, for which the stoichiometry N (PilE1 per PilE2) was 1.33.
